{"source": "patent US9944718B2", "about": "“ADAM22 for use as a prognostic variable, and target for therapy, of a metastatic breast cancer disease” (Royal College of Surgeons in Ireland, priority 2011, dated 2018)", "key": {"[1]": {"test": "Toxicity study of LGI1 peptide mimetic in vivo", "details": "preliminary in vivo studies; FIG. 1F", "procedure": "LGI1 mimetic was delivered by daily intraperitoneal injection to C57/bl6 mice at high (100 ug/kg/day), medium (10 ug/kg/day) and low dose (1 ug/kg/day) for 30 days."}, "[2]": {"test_system": "endocrine resistant LetR cells", "test": "Xenograft model of endocrine resistance", "assay_type": "in vivo", "details": "FIG. 1G", "description": "As ADAM22 expression has previously only been described in the central nervous system, a therapeutic directed against systemic ADAM22 has the potential to be highly specific for the breast and have low toxicity. The neuronal protein, LGI1 serves as a specific extracellular ligand for ADAM22^4. […] The Applicant has shown that treatment with recombinant LGI1 reduced cellular migration and restored differentiation in endocrine resistant cells in a similar manner to that observed with knockdown of ADAM22 (FIGS. 1C and D). A 22 amino acid peptide mimetic of LGI1 with a simple hairpin structure against the active binding domain of ADAM22 has been developed. […] In vivo studies have been undertaken to assess the efficacy of the LGI1 mimetic in reducing breast cancer burden in endocrine resistant breast cancer. […] This has significant advantage over previous methods described of detecting metastatic disease^9."}, "LetR cells": {"test_system": "LetR cells", "test": "Cellular differentiation in 3D culture, LetR cells", "assay_type": "cell-based", "details": "LetR cells treated with LGI1; n=3; FIG. 1D"}, "[3]": {"test_system": "endocrine resistant LY2 cells", "test": "Motility assay, LY2 cells", "assay_type": "cell-based", "details": "5 nM, FIG. 1C/1E", "description": "(§1) • For cell culture use Minimum Essential Medium-Eagle (EMEM; BioWhittaker, Product No. 12-611Q) containing the following supplements (=EMEM Complete Medium): 10% fetal calf serum (BioWhittaker, Product No. 14-503F), 1X penicillin/streptomycin solution (BioWhittaker, Product No. 17-602E), 1% L-glutamine (BioWhittaker, Product No. 17-605E), 1% non-essential amino acids (BioWhittaker, Product No. 13-114E) and 1% sodium pyruvate (BioWhittaker, Product No. 13-115E). • Split cells when they reach 60-80% confluency (every 2-3 days), diluting 1:5 to 1:10. • For cell motility, harvest cells with trypsin-versene mixture (BioWhittaker, Product No. 17-161F) and dilute into EMEM Complete Medium (warmed to 37° C.). For cells cultured in a T-75 flask, wash cells with 3 ml of trypsin. Add another 3 ml of trypsin and aspirate 2 ml. Allow cells to detach by incubating flask at 37° C. for 5 minutes and then add 9 ml of EMEM Complete Medium and centrifuge cells at 400×g for 5 minutes at room temperature. • Wash 3× with Serum-Free Culture Medium (warmed to 37° C.) (see Procedure section). • Adjust cell density to 10^4 cells/ml in EMEM serum-free medium and add 50 μl of the cell suspension to each well of a 96-well microplate (=500 cells/well). Cell motility is stimulated with 50 μl of 10% fetal bovine serum (FBS) diluted in EMEM serum-free medium. […]"}, "MCF7 cells": {"test_system": "MCF7 cells", "test": "Motility assay, MCF7 cells", "assay_type": "cell-based", "details": "5 nM, FIG. 1C", "description": "as §1"}, "[4]": {"test_system": "endocrine resistant LetR cells", "test": "Motility assay, LetR cells", "assay_type": "cell-based", "details": "5 nM, FIG. 1C/1E", "description": "as §1"}, "[5]": {"details": "LetR cells in vivo, daily injection"}}, "note": "Peptide text beside a SMILES is read from it."}
{"molecule": "CC[C@H](C)[C@H](NC(=O)[C@H](Cc1ccccc1)NC(=O)[C@H](CCCNC(=N)N)NC(=O)[C@@H](NC(=O)[C@H](CC(C)C)NC(=O)[C@H](CS)NC(=O)[C@@H](NC(=O)[C@H](Cc1ccc(O)cc1)NC(=O)[C@@H](NC(=O)[C@H](CC(=O)O)NC(=O)CNC(=O)[C@@H](N)CCCCN)C(C)C)[C@@H](C)CC)[C@@H](C)O)C(=O)NCC(=O)N[C@@H](CC(=O)O)C(=O)N[C@@H](CO)C(=O)N[C@@H](CCCCN)C(=O)N[C@H](C(=O)N[C@@H](CCSC)C(=O)N[C@@H](CCCCN)C(=O)N[C@@H](Cc1c[nH]c2ccccc12)C(=O)NCC(=O)NCC(=O)O)C(C)C", "note": "[LGI1 mimetic] (H-KGDVYICLTRFIGDSKVMKWGG-OH)", "values": [{"measurement": "tolerability / toxicity", "setting": "[1]", "value": "well tolerated with no toxicity observed"}]}
{"molecule": "LGI1: neuronal protein and known ADAM22 ligand LGI1 (SEQ ID NO: 1), GENBANK AAQ89244 (protein, listed as Homo sapiens, (1)..(557) LGI1 protein) MESERSKRMGNACIPLKRIAYFLCLLSALLLTEGKKPAKPKCPAVCTCTKDNALCENARSIPRTVPPDVISLSFVRSGFTEISEGSFLFTPSLQLLLFTSNSFDVISDDAFIGLPHLEYLFIENNNIKSISRHTFRGLKSLIHLSLANNNLQTLPKDIFKGLDSLTNVDLRGNSFNCDCKLKWLVEWLGHTNATVEDIYCEGPPEYKKRKINSLSSKDFDCIITEFAKSQDLPYQSLSIDTFSYLNDEYVVIAQPFTGKCIFLEWDHVEKTFRNYDNITGTSTVVCKPIVIETQLYVIVAQLFGGSHIYKRDSFANKFIKIQDIEILKIRKPNDIETFKIENNWYFVVADSSKAGFTTIYKWNGNGFYSHQSLHAWYRDTDVEYLEIVRTPQTLRTPHLILSSSSQRPVIYQWNKATQLFTNQTDIPNMEDVYAVKHFSVKGDVYICLTRFIGDSKVMKWGGSSFQDIQRMPSRGSMVFQPLQINNYQYAILGSDYSFTQVYNWDAEKAKFVKFQELNVQAPRSFTHVSINKRNFLFASSFKGNTQIYKHVIVDLSA", "values": [{"measurement": "cell proliferation in vivo", "setting": "[2]; [5]", "value": "inhibits"}, {"measurement": "metastasis in vivo", "setting": "[2]; [5]", "value": "inhibits"}, {"measurement": "tumour burden", "setting": "[2]; xenograft model of endocrine resistance", "value": "significantly reduced tumour burden"}, {"measurement": "cellular differentiation", "setting": "LetR cells", "value": "restored cellular differentiation"}, {"measurement": "cellular migration", "setting": "[3]", "value": "significantly reduced cellular migration"}, {"measurement": "cellular migration", "setting": "MCF7 cells", "value": "no discernable effect"}, {"measurement": "cellular migration", "setting": "[4]", "value": "significantly reduced cellular migration"}]}
